Test system: CC(=O)Oc1ccc([N+](=O)[O-])cc1
Experiment: purified protein
Format: biochemical, Marinobacter sp.
Settings: PBS pH 7.0, 20 °C, 0.1-2.5 mM substrate

Ple629 (Marinobacter sp.)
Km: 2100 µM
kcat: 4.742 s⁻¹

Ple628 (Marinobacter sp.)
Km: 1800 µM
kcat: 4.498 s⁻¹

Source: PMC9350882, “Molecular and Biochemical Differences of the Tandem and Cold-Adapted PET Hydrolases Ple628 and Ple629, Isolated From a Marine Microbial Consortium” (Frontiers in Bioengineering and Biotechnology, 2022)
